Assay results as given in a protein production outcome set (Wang et al. 2014).

Experiment: label from the status in PepcDB records
With “MQFLPILFVLLASGSFLSYTLSSYAIGNGTANIYHYVLNATSTGTEYNVSVFLNWSYSNLYEYVNKYDYSTFHKNFQVPDLYYIFYHSNPSTLAYILLFNNVTLTTYNLGGNQIPAIKFYNGDNYLTVSAQYGVMLQGFAKNYAGPSAGTLNVSISLNSYKNLPSFVSNANMYTLNVSFMPNPSALSYTLYLVSPEAKISGSNMYVSKEISIAYLSILSKGFTTIIIPSAYSIVRPIGEVIINQTNYYYFYLNGTLTYYGTYFTPKYYNSTTPFTIDTIGKYIVIFFPTGGNITVFLNNGNNPLYGVKVTGETGNKNTPLSLYLIIIGVVIVLVVAIIVLRFRKVF” the protein production was “failed”. For “MQFTDGGKEVELRLRLKTGEILSPKDISVDADGTSLAVKEKRNGLLITLLETNHLFEKIMPSETIWYIDEDQLVVNMKKVDGELKWPDIVESWESLTAGMMQLLKGASIYIVGDSTEINQKVSRELAVGLGYSPLDSKELLESFSKQTIDSWILAEGPDSVAEAESSVLESLSSHVRTVVSTLGGKHGAAGRADQWRHLYSGFTVWVSQTEATDEESAKEEARRSKQEREIGYSNADVVVKLQGWDPTHAKSVAQASLSALKQLIISDKGLPGNK”, the protein production was “failed”. With “MQGFLRSLFFGVKKIPKPFAPLVEKGVLKEALELKKDRYFLKEGFDIGKVEKVKDKAFFISLAKNYPKDPLIKNLPPSFKTDALILCQIECSKKRPIAFFKAALLNADHTMIAYLAKKNNQIVAIPFKEPFKKPVSLKHSQKSLLELPRHCVVKIDTKKREISEILGALEDPLIDENLSLSLFDRVKDFSKDCLNLAQHYAQLKASDFKDRINYSHIPFITIDPKDAKDFDDAIFYDQEKRVLFVAVADVSEFVPKHSSLDKEARVRGFSVYFPNSVYPMLPLSLSQGACSLKAFEKRLALVYEIPLDNLKNARLSQGVIEVRANCTYEEINHFLSANQSSLDKDLQQSLLGFLEMALKLKKERLKKGFNFNSFENKLYLNKEGRIEKIETEKESDAHTLIEEAMLLANQSSARLLDEHFHNKGIYRTHKEPSLEQQKRLYDKLFDYEIVRPKNMGFFPFLEHALKIAKEKSIEREVSRLIIKSQNLALYSPLQESHFGLGFASYTHFTSPIRRYSDLALHRLLKELLFYQAKGCSYLLEETPELCAELNALQKKAALIERDFIKRKFARLALELLEKEFLGVVLEVKDWVVVGLKEFIGLKVLVKTNKVFKPLEKVRVTITHADLILGQVRGEITERIKEHVS” the protein production was “failed”. With “MQGGRFMGNKNLIITIEREYGSGGRIVGKKLAEELGIHFYDDDILKLASEKSAVGEQFFRLADEKAGNNLLYRLGGGRKIDLHSKPSPNDKLTSPENLFKFQSEVMRELAESEPCIFVGRAAGYVLDQDEDIERLIRIFVYTDKVKKVQRVMEVDCIDEERAKRRIKKIEKERKEYYKYFTGSEWHSMKNYDLPINTTKLTLEETAELIKAYIRLKGFMD” the protein production was “not failed”. In the case of “MQGGSSGIGYGLKYQSRCISDVKADTDYTSFLTGTLSLKEENEVHLLRLSSGGSELICEGLFSHPNEIWDLASCPFDQRIFSTVFSTGESFGAAIWQIPELYGQLNSPQLERVASLDAHVGKINCVLWWPSGRCDKLISIDEQNIFLWSLDCSKKSAEVLSKDSAGMLHSLSGGAWDPHDVNAVAATGESSVQFWDLRTMKKVNSIEHAHVRGVDYNPKREHILVTAEDESGIHVWDLRKAKVPVQELPGHTHWTWAVRCNPEYDGLILSAGTDSVVNLWYASATSSDDKTSESPVESTRQRVNPLLNSYTDYEDSVYGLAWSSREPWVFASLSYDGRVIIESVKPFLPRI”, the protein production is reported as “failed”. With “MQGIKRKLVYVTAYELIGMSISTLGLALLAGSTPTTTGPLAVVITTVAVTWNFIYNCLFEFWERRQAVRGRSIARRVAHAIGFQLTLVVYLIPLIAWWMGISLLEAFWLDLALIVLIPCYTFLFNWAFDRLFGLPTSALPAGEAASV” the protein production was “failed”. For “MQGLVNMVYQQTERLGYKNLEMIKGLDRTENYSKLKKYYRSCVKEYELSNKAIEEAKGFASSKAYRSASEAAARAFDSISMCEAYLEGSKTPGYVTTRNWWFERMCDIDKIFTDLLISAKF”, the protein production was “failed”. In the case of “MQGNALTILLSGKKYLLLQGPMGPFFNDVAEWLESLGRNAVNVVFNGGDRFYCRHRQYLAYYQTPKEFPGWLRALHRQYDFDTILCFGDCRPLHKEAKRWAKSKGIRFLAFEEGYLRPQFITVEEGGVNAYSSLPRDPDFYRKLPDMPAPHVENLKPSTMKRIGHAMWYYLMGWHYRHEFPRYRHHKSFSPWYEARCWVRAYWRKQLYKVTQRKVLPRLMNELDQRYYLAVLQVYNDSQIRNHSNYNDVRDYINEVMYSFSRKAPKESYLVIKHHPMDRGHRLYRPLIKRLSKEYGLDERVIYVHDLPMPELLRHAKAVVTINSTAGISALIHNKPLKVMGNALYDIKGLTYQGHLHQFWQADFKPDMKLFKKFRGYLLVKTQVNGGYYGGVKFENALGMNKDFLFGSKSIS”, the protein production is reported as “failed”. With “MQHHKVAIIGAGAAGIGMAITLKDFGITDVIILEKGTVGHSFKHWPKSTRTITPSFTSNGFGMPDMNAISMDTSPAFTFNEEHISGETYAEYLQVVANHYELNIFENTVVTNISADDAYYTIATTTETYHADYIFVATGDYNFPKKPFKYGIHYSEIEDFDNFNKGQYVVIGGNESGFDAAYQLAKNGSDIALYTSTTGLNDPDADPSVRLSPYTRQRLGNVIKQGARIEMNVHYTVKDIDFNNGQYHISFDSGQSVHTPHEPILATGFDATKNPIVQQLFVTTNQDIKLTTHDESTRYPNIFMIGATVENDNAKLCYIYKFRARFAVLAHLLTQREGLPAKQEVIENYQKNQMYLDDYSCCEVSCTC” the protein production was “not failed”. In the case of “MQIESFKSLLPKYKCIFFDAFGVLKTYNGLLPGIENTFDYLKAQGQDYYIVTNDASRSPEQLADSYHKLGLFSITADKIISSGMITKEYIDLKVDGGIVAYLGTANSANYLVSDGIKMLPVSAIDDSNIGEVNALVLLDDEGFNWFHDLNKTVNLLRKRTIPAIVANTDNTYPLTKTDVAIAIGGVATMIESILGRRFIRFGKPDSQMFMFAYDMLRQKMEISKREILMVGDTLHTDILGGNKFGLDTALVLTGNTRIDDAETKIKSTGIVPTHICESAVIEL”, the protein production is reported as “not failed”. With “MQIKEIFMIRCISCLSVVLLHIISMVLMLQAEALADISHTVDSFRTLLMFSTPAFIFISEFLLARSYPDGVPDGFLKKRGKVIFVPFLFIAAIDALLMTSAMGGEVTFLAFVQKYLANVFLGNFIGYFILVIFQFYMLHMMFHEYLKKASPKWVLSISFVVTAAYLGYFSAASPAPASEEGGAFPFFWVPFAGWLFYFCLAYYCGKEYKRFLALLNQYRWVVYGAAIASGALVVTVSYVGEIGMISSKRPDIMLYSTSMIFLCFHLFSKMKHVPKIMMFISNYSFSIYLLHAYFMIIGYVLLLNMPEIPAVPAVLLLFAVCTAGPIMTSWALNKFKYGYLFVGKIYQPKQKKVTVEVRDHAG” the protein production was “failed”. In the case of “MQILQTFVQSIQGVMTIIVMIAVGYLLARWGWFNESATKLIARLVTQIALPAYMIATITKQFTAHKLLSTLPGLRFPVLNMAILFGISFGVMRALNIKKSHRGLFASMFLNSNTVFIGLPVNQALFGNSALPYVLVYYMANTTIFWTLGVYLIQRDGTGTAKFDLKQTLTKIFSPPLLGFMIGVLLVLGNIHVPKFLMDDFSYIGGLTIPLSMIFIGISMANAGLSSMRFDRDSLGILLGRFILAPVLMTLMLIPMSIPLEMKQVFILQSAMPVMTNAPVVSKLYGADADYAAVMVTETTLLSLIVIPILMVIVQANFIR”, the protein production is reported as “failed”. For “MQIPIYSKLKTKLESKGIDNISSGQIAWFVCSLILALVTYIILTFHYIYISYGKYDKNLFLLIFDRNAIELFVIVYSCIMFNLLYIYNAIPLVLSAVFIFLAFYFSSLSLFIVGCCGIGVFFLISIFKRKFMFSVLLFALGYTCTLFFFYGLATY”, the protein production was “failed”. In the case of “MQIYLSTLTELDYDKSLNSIEESFDDNPETSWQARAKVKHLRKSPCYNFELEVIAKNENNDVVGHVLLIEVEINSDDKTYYGLAIASLSVHPELRGQKLGRGLVQAVEERAKAQEYSTVVVDHCFDYFEKLGYQNAAEHDIKLESGDAPLLVKYLWDNLTDAPHGIVKFPEHFY”, the protein production is reported as “failed”. With “MQKFIIHKGIACPLEYANIDTDQIIPKQFLLAVSKQGFGKHLFHDLRYLDDKESVLNMDFNLNKKEYQNSSILVSFENFGSGSSREHAPWALVDYGIRAIIAPSFADIFKNNALGNGLLTIELAKDEVLEIVDELKKSQDKNIEISLLEKRVFFKDKIFSFDLDDFHRICLLEGLDNIALTLKHEAQIKAYEKNSKSFLV” the protein production was “not failed”. With “MQKGFLLGLFAYATFSMGDATIKSLGSQISVFEIGFFSILFSGIFIFFSKPREERWREFWRMSRPFAVHGRAISGLFAGIFGIYAFTTIPLAEAYALIFLSPLFVTVLSAVVLKENIGPWRWAAVLAGIVGVILVVRPGFKTLELGHIAAIGVAFLAAMTIVLLRSLAGKEKRTSIMGVLLIYGLTFNGIASIPDFVMPNLHQLLAFAFIGLCTATGQITLLVATRIAPASQIAPSHYSQILWAVAIGMTFFHEYPDAIAALGLAVIAASGLLTMIREKVRLGTVRWNPFFRNRL” the protein production was “failed”. With “MQKKSQTAQSYHPMIKEFPEFYGPLTCPGQFLALLILEFGLNFAEIQKLKWENFNWNFKYLTIEKAGIKRVLPIREKFAIRVKAINNADELFAKSRQFLYTELKKFTNYSSKEIREQYILHQVKAGKSIYELATLLGLTTITTLEKYYRLEHHHHHH” the protein production was “failed”. For “MQKLFLTFFYSGSVKKASGTFGTIAALIPAFFILKYLGINTLFLLSILIFVASIRVIDDYEKKTGIHDDKHIVIDEVAGVFLACAIAASVENSIVNFILAFVLFRLFDITKPSIIGKIDKKVKGGLGVMLDDMLAGLFAGLLSAVIYGFLLKFNLVFWDINLKDLF”, the protein production was “failed”. For “MQKRVVILLLDSFGIGASEDAKDFGDLGANTLGNIAKACFNNLADSNDRSGALKLPYLESLGLGLSALKAANELPLGFQSQPNLIGAYAYAQELSSAKDTISGHWEMMG”, the protein production was “failed”. In the case of “MQKSDALALDGSAALAEPVPATEIARGIAVLAAPTSLVAFLQAGAQLIETWLAARQGTASLAGWAVVLPFALLLQQMSTGAMGGGVVSAIARALGGGKREEASSLVLHALIIAVTAGLIFAIVLAGFPRSVFGAVAGATAAEAAASYAIWLFGAGAVPAWLANTLASVLRGGGRHALAARVLGGMWVVFPVLSWWLAERVGMGLAGIGAALAAVSWGAALVMAYVVFRGGAGFVPSLRIRPSKALFYRILSIGLVACALASVANLTTILVTAQLRHYGTTTVAAYGISARLEFLMIPLAFGVGSALTALVGRAVGAGDWHTARRTAWVGALLALLIAGTVGAAVGLAPNQFAGLFTQDPNVGAIAARALSWVGPAFGGFGLGMALYFASMGAGRMRWPIAAGLCRIALAAGGGWLLANVAGMGLDGHFLGVALGITSYGLVTAIGVRKGEWSPRH”, the protein production is reported as “failed”. With “MQLSAPPYEERLTAPRTWWLMCFLVGVSMALILLPFGTLPLLGGLVGGTAVAAVVASSYGSIRIRVVGDSLIAGEAKIPVAALGEAEIMDQEEARAWRTYKANPRAFMLLRSYIPTALRVEVTDPQDPTPYLYLSTREPERLAAALKAARTEA” the protein production was “failed”. For “MQLSIEEVKKLDSNSYQIIDIRSEEEVAHGAIKGALNIQAEEIESDERVPHDKKLVIVCSRGKTSVDVAEYLTEKGFDAASLKGGYISWLLDAMKEDEVAERDIKADVEQSIRKKFKKSIWRKFTKAINTYELVKPGDKIAVCISGGKDSMLMAKLFQELKHHNKFDFDVKFLVMDPGYNEANRHVIEENCRNLGIPATIFESDIFDAVYDIEKSPCYLCARMRRGHLYAFAKELGCNKIALGHHYDDVIETILMGMLYGAQVQTMMPKLHSTNFEGMELIRPLYLVREDDIKAWRDYNGLHFIQCACKFTDTCTTCNNEENRSKRVEIKQLIANLKKVNPFVEANIFKSVENVNLATVVAYKKDGIKHSFLDHYDE”, the protein production was “failed”. With “MQMAGFGLIAKLRNKIRVKPNNKIQIGKNTRIRYCDIYVNGNNNQLIIHNGANLKGVSIELNGNNCLLEIGENCVIGENCFLSCRESGTKLVIGKECMFSRNVKLMTSDGHDILRDGKRINPAKSIYIGSHVWLADNVTILKGVDIGSGSIIGINSTVTKSIGQYCIAAGNPARKIKDNISWNTTLSY” the protein production was “failed”.
